From article PMC3298750 (Nature immunology, 2011)
Non-standard residues stand in square brackets, D forms with d. No end group written: not given here. pS = N[C@@H](COP(=O)(O)O)C(=O)O

Target: 15N-WW domain of Pin1 (tag removed) (UniProt Q13526 5-39, 15N-labelled)
Assay: NMR titration

Sequence of 15N-WW domain of Pin1 (tag removed) (Q13526 5-39): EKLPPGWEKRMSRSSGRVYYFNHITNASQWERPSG

Row | Binder | Kd
1 | EAEAW[pS]PRKLP [IRAK1 phosphopeptide 126-136 (pSer131-P132)] | 220 ± 15 µM
2 | STFL[pS]PAFPGS [IRAK1 phosphopeptide 140-150 (pSer144-P145)] | 120 ± 12 µM
3 | ELGLVPSPASLWPPPP[pS]PAPSSTK [IRAK1 phosphopeptide 157-180 (pSer173-P174)] | 260 ± 75 µM
